The values that follow are results of earlier work, collected in PMC8594252.

In this series the target is HSPE1 (Homo sapiens) (UniProt P61604).

One may read the Kd as the equilibrium constant for the complex coming apart. For HSPE1 (from UniProt P61604), the Kd was 3000 nM.
